Results published in patent publication US6570069B1, “Nucleic acids encoding plant inhibitors of apoptosis and transgenic cells and plants expressing them” (priority 2000, dated 2003).
Entries after “also recorded” stand apart in the source; their conditions may differ.

T1: caspase-7 (Homo sapiens, UniProt P55210)
T1 construct: His6 (C); made in house
T1 sequence (P55210 24-198 limits assumed): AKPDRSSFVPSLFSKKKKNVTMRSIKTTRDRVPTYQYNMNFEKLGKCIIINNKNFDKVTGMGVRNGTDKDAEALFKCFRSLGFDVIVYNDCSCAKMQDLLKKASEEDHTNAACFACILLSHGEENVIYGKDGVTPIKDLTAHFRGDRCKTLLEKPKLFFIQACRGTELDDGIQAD
T1 sequence (P55210 207-303 limits assumed): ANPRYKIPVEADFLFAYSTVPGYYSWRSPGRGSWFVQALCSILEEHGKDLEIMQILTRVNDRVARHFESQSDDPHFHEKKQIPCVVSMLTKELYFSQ

B1: CpIAP: baculoviral (CpGV) inhibitor of apoptosis protein; complete ORF expressed myc-tagged or as GST-fusion (protein)
chain: MSDLRLEEVRLNTFEKWPVSFLSPETMAKNGFYYLGRSDEVRCAFCKVEIMRWKEGEDPAADHKKWAPQCPFVKGIDVCGSIVTTNNIQNTTTHDTIIGPAHPKYAHEAARVKSFHNWPRCMKQRPEQMADAGFFYTGYGDNTKCFYCDGGLKDWEPEDVPWEQHVRWFDRCAYVQLVKGRDYVQKVITEACVLPGENTTVSTAAPVSEPIPETKIEKEPQVEDSKLCKICYVEECIVCFVPCGHVVACAKCALSVDKCPMCRKIVTSVLKVYFS
modifications: left off: a dimerising Fc or GST
notes: complete ORF expressed myc-tagged or as GST-fusion
B2: SfIAP: cellular IAP cloned from Spodoptera frugiperda, protein of 377 amino acids (SEQ ID NO:3); GST-fusion when recombinant (protein, listed as Spodoptera frugiperda)
chain: MWSCSLPCWNTKKSGLQMDITKVASNGSSSTLTLFKSGSLEAKIRPLAPLMLPTPSYDSNAGSPSLSPSTPCSSSSFSIDKTDNHDTFGFSADTVDMRKEDERMKTFEKWPVSFLSGEQLARNGFYYLGRRDEARCAFCKVEIMRWVEGDDPAKDHQRWAPQCPFVRKLNGTAAADTGSSGQDECGARAAPSGTSPPRMAGPVHPRYASEAARLRSFKDWPRCMRQKPEELAEAGFFYTGQGDKTKCFYCDGGLKDWENHDVPWEQHARWFDRCAYVQLVKGREYVQKVISEACEVSASEAERDVAPARTAEPSPPAEAPENSVDDSKLCKICYAEERNVCFVPCGHVVACAKCALAADKCPMCRRTFQNAVRLYFS
modifications: GST fusion when recombinant; fall armyworm inhibitor of apoptosis protein (SfIAP)

Assays:
[1] = system: recombinant active caspase-9; assay: Enzyme inhibition assay with recombinant active caspase-9 and Ac-LEHD-AFC; type: biochemical, mammalian; conditions: Ac-LEHD-AFC substrate
Protocol: (§1) pGEX4T-1-SfIAP and pGEX4T-1 -CpIAP plasmids were introduced into E. coli strain BL21 (DE3) containing the plasmid pT-Trx. GST fusion proteins were obtained by induction with 0.05 mM IPTG at 25° C. for 8 hours, then purified using glutathione-Sepharose, essentially as described (Deveraux, Q., Welsh, K. & Reed, J. Methods of Enzymology in press). Caspases-3, and -7, containing C-terminal His6-tags, and caspase-8 containing an N-terminal His6-tag were purified as described previously (Stennicke, H. R. & Salvesen, G. S. (I1997) J. Biol. Chem. 272, 25719-25723; Stennicke, H., et al., (1998) J. Biol. Chem. 273, 27084-27090; Stennicke, H., et al., (1999) J. Biol. Chem. 274, 8359-8362). Caspase-9 lacking the CARD domain (ΔCARD-caspase-9) was constructed by truncating the cDNA and introducing a start codon substituting Val139. The resulting cDNA was subcloned into pET-23b and expressed in BL21 (DE3), yielding fully processed enzyme when cells were induced using 0.2 mM IPTG at OD600=0.6 for 4 hrs (Stennicke, H., Deveraux, Q., Humike, E., Reed, J., Dixit, V. & Salvesen, G. (1999) J. Biol. Chem. 274, 8359-8362). All expressed caspases were purified by Ni-chelation affinity-chromatography, as described (Stennicke, H., et al., (1999) J. Biol. Chem. 274, 8359-8362; Stennicke, H. R. & Salvesen, G. S. (1997) J. Biol. Chem. 272, 25719-25723; Stennicke, H., et al., (1998) supra). Concentrations of purified enzymes were determined from absorbance at 280 nm based on the molar absorption coefficients: caspase-3 (A280=26,000M−1 cm−1), caspase-7 (A280=24,500 M−1 cm−1), caspase-9 (A280=30,010M−1 cm−1).
(§2) Caspase activity was assayed by release of 7-amino-4-trifluoromethyl-coumarin (AFC) from Ac-DEVD or Ac-LEHD-containing synthetic peptides (Calbiochem) using continuous-reading instuments as described (Quan, L. T. et al., (1995) J. Biol. Chem. 270:10377-10379).
To directly examine the possibility that SfIAP and CpLAP inhibit caspase-9, enzyme inhibition assays were performed using bacteria-produced recombinant active caspase-9, recombinant-purified SfIAP and CpIAP, and Ac-LEHD-AFC as a caspase-9 substrate.

[2] = system: DEVD-cleaving proteases in cell extracts treated with caspase-8; assay: Cell-free caspase activation induced by active caspase-8 in HEK 293 cytosolic extracts; type: biochemical, human; conditions: recombinant protein
Protocol: as §2
Cytosolic extracts were prepared as described (Deveraux, Q., Takahashi, R., Salvesen, G. S. & Reed, J. C. (1997) Nature 388, 300-303) using human embryonic kidney (HEK) 293 cells. Cells were washed with ice-cold buffer A (20 mM HEPES pH 7.5, 10 mM KCl, 1.5 mM MgCl2, 1 mM EDTA and 1 mM DTT), suspended in 1 volume of buffer A, incubated on ice for 20 mins, and then disrupted by 15 passages through a 26-gauge needle. Cell extracts were purified by centrifugation at 15000 g for 12 mins and supernatants were stored at −80 ° C. For initiating caspase activation, either 100 nM of purified recombinant caspase-8 or 1 μM horse heart cytochrome c (Sigma) together with 1 mM dATP was added to extracts (Deveraux, Q. L., et al., (1998) EMBO J. 17, 2215-2223).
To further explore the mechanisms by which SfIAP and CpIAP inhibit mammalian apoptosis, a cell-free system in which exogenously added active caspase-8 or cyto c induces activation of caspase-3 and similar proteases, as measured by hydrolysis of Ac-DEVD-AFC (Quan, L. T. et al., (1995) J. Biol. Chem. 270, 10377-10379) was used. […]

[3] = system: caspase-9-induced caspase activation and apoptosis in 293T cells; assay: Caspase-9 overexpression in 293T cells: caspase activity and apoptosis; type: cell-based, human; conditions: 24-36 hours after transfection
Protocol: HEK293 and 293T cells were maintained in DMEM (Irvine Scientific) supplemented with 10% fetal bovine serum, 1 mM L-glutamine and antibiotics. 293 cells (10^6) were co-transfected using Superfect with 0.1 μg Green Fluoresence Protein (GFP) marker plasmid pEGFP (Clontech), 0.25 ug of either pcDNA3-Bax or pcDNA3-Fas, and 1.5 μg of either pcDNA3myc-SfIAP or pcDNA3myc-CpIAP. Alternatively, cells were co-transfected with 0.35 μg pcDNA3-caspase-9-Flag and 2.1 μg of either SfIAP or CpIAP. […] In some cases, lysates were prepared from transfected cells, normalized for total protein content, and analyzed by SDS-PAGE/immunoblotting as described (Deveraux, Q., et al., (1997) supra; Deveraux, Q. L., et al. (1998) supra; Roy, N. et al. (1997) supra; Takahashi, R., et al., (1998), supra.).
To test this hypothesis, 293T cells were transfected with plasmids encoding pro-caspase-9 alone or in combination with SfIAP and CpIAP. Caspase activity and apoptosis were then assayed 24-36 hours later.

caspase-7 = target: T1, caspase-7; assay: Binding to recombinant purified caspase-7; set-up: species or system mammalian
Protocol: as §1, with “All expressed caspases were purified by Ni-chelation affinity-chromatography, as described (Stennicke, H., et al., (1999) J. Biol. Chem. 274, 8359-8362; Stennicke, H. R. & Salvesen, G. S. (1997) J. Biol. Chem. 272, 25719-25723; Stennicke, H., et al., (1998) supra).” left out, “cm−1). […]” for “cm−1).”

Molecule	inhibition of recombinant active caspase-9 [1]	molar-excess relative to caspase-9 which produced ~50% inhibition of protease activity [1] [fold]	effect on DEVD-cleaving proteases [2]	inhibition of caspase-9-induced apoptosis [3]	suppression of activation of downstream DEVD-cleaving caspases induced by overexpression of caspase-9 [3]	binding to caspase-7 (caspase-7)
B1	inhibited recombinant active caspase-9 in a concentration-dependent manner; also recorded: direct inhibitors of mammalian caspase-9	12	no effect on DEVD-cleaving proteases	inhibited caspase-9-induced apoptosis	markedly suppressed activation of downstream DEVD-cleaving caspases	neither bound
B2	inhibited recombinant active caspase-9 in a concentration-dependent manner; also recorded: direct inhibitors of mammalian caspase-9	8	no effect on DEVD-cleaving proteases	inhibited caspase-9-induced apoptosis	markedly suppressed activation of downstream DEVD-cleaving caspases	neither bound
